Measurements as given in publication PMC11407943, “Cdc14 phosphatases use an intramolecular pseudosubstrate motif to stimulate and regulate catalysis” (The Journal of Biological Chemistry, 2024).
Substitutions are numbered along the chain they refer to. Names may count otherwise.

Legend:
[1] = Catalytic efficiency (kcat/KM) on pooled phosphopeptides by LC-MS; settings: 375 nM each pooled phosphopeptide, 30 °C, 10 to 40 min; for catalytic efficiency (kcat/KM) for high affinity substrates: enzyme 0.1–1 μM, at least four independent measurements
Procedure: Cdc14 catalytic efficiencies toward a pooled set of phosphopeptide variants were measured by LC-MS exactly as described ([49]). […] Reactions were initiated by addition of Cdc14 enzymes (0.1–1 μM final concentration) in 200 μl Cdc14 reaction buffer and incubated at 30 °C for 10 to 40 min 60 μl aliquots were removed and mixed with an equal volume 5% formic acid at desired times to terminate the reactions. Peptides were desalted on C18 spin columns (Thermo Fisher Scientific) and dried by vacuum centrifugation prior to LC-MS analysis on an LTQ Orbitrap Velos mass spectrometer. Extracted ion chromatograms for each substrate and product peptide were generated and integrated using Skyline software ([65]) (https://skyline.ms/project/home/begin.view) and catalytic efficiency calculations from the data were performed as described ([28], [47]).

[2] = Steady-state kinetics of Cdc14 enzyme variants toward DiFMUP
Procedure: B, initial velocities as a function of increasing DiFMUP concentration were measured under steady-state conditions for the indicated ScCdc14 variants. […] Data are average values from at least three independent measurements. Error bars are SDs. Lines are best fits for the Michaelis–Menten equation. C, to better visualize differences in KM, all Vmax values from data in panel A were normalized to 1. D, top: the general PTP-catalyzed reaction scheme with associated rate constants ([50]), where E is enzyme, S is phosphorylated substrate, P is dephosphorylated product, Pi is inorganic phosphate, and E-Pi is the covalent phosphoenzyme intermediate. For simplicity, the reverse catalytic steps are omitted and considered negligible under our experimental conditions. Bottom: definitions of kcat and KM for enzymes following the two step PTP reaction mechanism ([47]). E, a representative presteady-state reaction progress graph for reaction of the indicated ScCdc14 enzyme variants with 200 μM DiFMUP, measured in a stopped flow spectrofluorometer. Data were fit with Equation 1 (see Experimental procedures) to generate rates of the burst phase (kburst) of the reaction. F, kburst was plotted as a function of substrate concentration from presteady-state kinetic measurements with the substrate DiFMUP and the indicated ScCdc14 enzyme variants. Data are averages of three independent measurements and error bars are SDs. Data were fit in GraphPad Prism with Equation 2 (Experimental procedures).
D–E, steady-state kinetic analyses with hCdc14A enzyme variants toward DiFMUP as in Figure 2, B and C. […] In E, Vmax values from data in panel D were normalized to 1 to show differences in KM.
Data from velocity versus substrate concentration plots were fit with the Michaelis–Menten equation in GraphPad Prism (https://www.graphpad.com/) to determine steady-state kinetic parameters kcat and KM. For trans peptide stimulation assays, DiFMUP was used at a single concentration well above the measured KM for each enzyme.

[3] = cited from earlier work
Description: To experimentally characterize the SLiCE motif mechanism, we expressed and purified several recombinant ScCdc14 enzyme variants (Figs. 2A and S2A).

[4] = Presteady-state (stopped-flow) kinetics of Cdc14 enzyme variants with DiFMUP; format: biochemical; settings: 23 °C, 200 μM DiFMUP in representative ScCdc14 progress curve, compared to ScCdc14^1-449
Procedure: SLiCE motif is boxed in gray.
Presteady-state kinetic analysis was performed as described previously ([34]). Enzymes were exchanged into Cdc14 reaction buffer using a desalting column and flash-frozen in liquid nitrogen. Prior to use, aliquots were thawed and clarified at 16,000g for 5 min to remove any insoluble material and protein concentration was subsequently determined by Bradford assay. Presteady-state measurements were made by mixing enzyme and varying DiFMUP concentrations at 23 °C on an SFM-3000 stopped-flow instrument equipped with a MOS-200/M spectrophotometer (BioLogic) as described ([64]). The excitation wavelength was 390-nm and emission was selected using a 409-nm long pass filter (Semrock FF02-409/LP-25). A standard curve was generated by measuring the fluorescence of defined concentrations of the product DiFMU reconstituted in Cdc14 reaction buffer under identical conditions. Raw data were fit with Equation 1 in Prism:(1) Y=At+B(1−e^−bt)+C

[5] = DiFMUP, pH 7.5, 30 °C, S429 phosphosite mutant series, printed "(Fig. 6)" for ScCdc141-449

B1: ScCdc14^1-449: truncation of S. cerevisiae Cdc14 that retains the SLiCE motif (protein)
chain: MRRSVYLDNTIEFLRGRVYLGAYDYTPEDTDELVFFTVEDAIFYNSFHLDFGPMNIGHLYRFAVIFHEILNDPENANKAVVFYSSASTRQRANAACMLCCYMILVQAWTPHQVLQPLAQVDPPFMPFRDAGYSNADFEITIQDVVYGVWRAKEKGLIDLHSFNLESYEKYEHVEFGDFNVLTPDFIAFASPQEDHPKGYLATKSSHLNQPFKSVLNFFANNNVQLVVRLNSHLYNKKHFEDIGIQHLDLIFEDGTCPDLSIVKNFVGAAETIIKRGGKIAVHCKAGLGRTGCLIGAHLIYTYGFTANECIGFLRFIRPGMVVGPQQHWLYLHQNDFREWKYTTRISLKPSEAIGGLYPLISLEEYRLQKKKLKDDKRVAQNNIEGELRDLTMTPPSNGHGALSARNSSQPSTANNGSNSFKSSAVPQTSPGQPRKGQNGSNTIEDINNN
modifications: left off: 6xHis, N-terminal, state not stated
catalytic efficiency (kcat/KM) for high affinity substrates [1]: indistinguishable
kcat [2, 5]: 1.71 ± 0.24 s⁻¹
activity compared with full-length ScCdc14 [3]: indistinguishable from full-length ScCdc14

B2: ScCdc14^P433A/K435A: SLiCE motif point mutant generated in ScCdc14^1-449 (protein)
chain: B1 chain with P433A, K435A
modifications: left off: 6xHis, N-terminal, state not stated
catalytic efficiency (kcat/KM) for low affinity substrates ([1]; compared to ScCdc14^1-449): modest, but consistent and statistically significant, increase in catalytic efficiency
catalytic efficiency (kcat/KM) for high affinity substrates [1]: indistinguishable
postburst linear rate (primarily reflecting k3) [4]: greatly reduced
kcat ([2]; pH 7.5): 0.27 ± 0.03 s⁻¹

B3: ScCdc14^1-374: catalytic domain alone lacking the SLiCE motif (protein)
chain: MRRSVYLDNTIEFLRGRVYLGAYDYTPEDTDELVFFTVEDAIFYNSFHLDFGPMNIGHLYRFAVIFHEILNDPENANKAVVFYSSASTRQRANAACMLCCYMILVQAWTPHQVLQPLAQVDPPFMPFRDAGYSNADFEITIQDVVYGVWRAKEKGLIDLHSFNLESYEKYEHVEFGDFNVLTPDFIAFASPQEDHPKGYLATKSSHLNQPFKSVLNFFANNNVQLVVRLNSHLYNKKHFEDIGIQHLDLIFEDGTCPDLSIVKNFVGAAETIIKRGGKIAVHCKAGLGRTGCLIGAHLIYTYGFTANECIGFLRFIRPGMVVGPQQHWLYLHQNDFREWKYTTRISLKPSEAIGGLYPLISLEEYRLQKKKLKD
modifications: left off: 6xHis, N-terminal, state not stated
decrease in kcat compared to ScCdc14^1-449 ([2]; DiFMUP, steady state): 16 fold

B4: ScCdc14^S429E (protein, UniProt Q00684 1-551, looked up, variant S429E)
Tyrosine-protein phosphatase …: MRRSVYLDNTIEFLRGRVYLGAYDYTPEDTDELVFFTVEDAIFYNSFHLDFGPMNIGHLYRFAVIFHEILNDPENANKAVVFYSSASTRQRANAACMLCCYMILVQAWTPHQVLQPLAQVDPPFMPFRDAGYSNADFEITIQDVVYGVWRAKEKGLIDLHSFNLESYEKYEHVEFGDFNVLTPDFIAFASPQEDHPKGYLATKSSHLNQPFKSVLNFFANNNVQLVVRLNSHLYNKKHFEDIGIQHLDLIFEDGTCPDLSIVKNFVGAAETIIKRGGKIAVHCKAGLGRTGCLIGAHLIYTYGFTANECIGFLRFIRPGMVVGPQQHWLYLHQNDFREWKYTTRISLKPSEAIGGLYPLISLEEYRLQKKKLKDDKRVAQNNIEGELRDLTMTPPSNGHGALSARNSSQPSTANNGSNSFKSSAVPQTEPGQPRKGQNGSNTIEDINNNRNPTSHANRKVVIESNNSDDESMQDTNGTSNHYPKVSRKKNDISSASSSRMEDNEPSATNINNAADDTILRQLLPKNRRVTSGRRTTSAAGGIRKISGSIKK
kcat [2, 5]: 0.15 ± 0.01 s⁻¹
